The record followed here is IntAct's records for PubMed 20729810.

First the molecules themselves.
B1: G protein-coupled receptor kinase 6 (Homo sapiens), P43250 (parent)
chain: MELENIVANTVLLKAREGGGGNRKGKSKKWRQMLQFPHISQCEELRLSLERDYHSLCERQPIGRLLFREFCATRPELSRCVAFLDGVAEYEVTPDDKRKACGRQLTQNFLSHTGPDLIPEVPRQLVTNCTQRLEQGPCKDLFQELTRLTHEYLSVAPFADYLDSIYFNRFLQWKWLERQPVTKNTFRQYRVLGKGGFGEVCACQVRATGKMYACKKLEKKRIKKRKGEAMALNEKQILEKVNSRFVVSLAYAYETKDALCLVLTLMNGGDLKFHIYHMGQAGFPEARAVFYAAEICCGLEDLHRERIVYRDLKPENILLDDHGHIRISDLGLAVHVPEGQTIKGRVGTVGYMAPEVVKNERYTFSPDWWALGCLLYEMIAGQSPFQQRKKKIKREEVERLVKEVPEEYSERFSPQARSLCSQLLCKDPAERLGCRGGSAREVKEHPLFKKLNFKRLGAGMLEPPFKPDPQAIYCKDVLDIEQFSTVKGVELEPTDQDFYQKFATGSVPIPWQNEMVETECFQELNVFGLDGSVPPDLDWKGQPPAPPKKGLLQRLFSRQDCCGNCSDSEEELPTRL

Variants of B1 are the subject of the first experiment. The settings on record: with rom1_bovin ROM1, P52205.
Chain of rom1_bovin ROM1, P52205 (P52205 whole entry): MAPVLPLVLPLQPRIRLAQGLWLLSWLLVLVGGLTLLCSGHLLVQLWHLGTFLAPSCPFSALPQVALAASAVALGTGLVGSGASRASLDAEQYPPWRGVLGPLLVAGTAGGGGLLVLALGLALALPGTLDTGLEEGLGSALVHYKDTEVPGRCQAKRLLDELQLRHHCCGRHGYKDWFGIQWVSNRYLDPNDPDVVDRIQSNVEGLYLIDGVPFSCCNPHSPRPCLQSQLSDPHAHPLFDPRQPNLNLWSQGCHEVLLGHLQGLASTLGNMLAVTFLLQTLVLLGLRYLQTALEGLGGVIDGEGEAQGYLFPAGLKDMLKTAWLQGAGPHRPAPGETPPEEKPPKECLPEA
For L12A, the “effect of a mutation on the interaction” value is recorded as “disrupting interaction”.

The variants in a further experiment derive from B1. To be noted: with rom1_bovin ROM1, P52205. The source holds these as a separate data set.
Take N9A: the “effect of a mutation on the interaction” value is recorded as “disrupting interaction”.

In a further experiment the parent is B1. The settings on record: with rom1_bovin ROM1, P52205. The source holds these as a separate data set.
With E4A, the “effect of a mutation on the interaction” value is listed as “decreasing interaction”.

The variants in a further experiment derive from B1. To be noted: with rom1_bovin ROM1, P52205. This is another data set of the same source.
In the case of L13A, the “effect of a mutation on the interaction” value is reported as “decreasing interaction”.

The next experiment covers variants of B1. The settings on record: with rom1_bovin ROM1, P52205. This is another data set of the same source.
Consider L3A, for which the “effect of a mutation on the interaction” value is “decreasing interaction”.

The variants in a further experiment derive from B1. To be noted: with rom1_bovin ROM1, P52205. The source holds these as a separate data set.
As for I6A, the “effect of a mutation on the interaction” value is “decreasing interaction”.

The variants in a further experiment derive from B1. The settings on record: with rom1_bovin ROM1, P52205. The source holds these as a separate data set.
Consider I6E, for which the “effect of a mutation on the interaction” value is on record as “disrupting interaction”.
Still for that read-out and setting: for V7E the value was “disrupting interaction”.

Variants of B1 are the subject of a further experiment. The settings on record: with rom1_bovin ROM1, P52205. The source holds these as a separate data set.
On to V7A, for which the “effect of a mutation on the interaction” value was “decreasing interaction”.
